Assay results published in patent publication US9249224B2 (RINAT NEUROSCIENCE CORP., priority 2011, dated 2016).

Target: T1, human GHR (Homo sapiens, UniProt P10912, I544L)
T1 construct: expressed in transfected cells; host or cells: HEK293
T1 sequence (P10912 19-638 I544L): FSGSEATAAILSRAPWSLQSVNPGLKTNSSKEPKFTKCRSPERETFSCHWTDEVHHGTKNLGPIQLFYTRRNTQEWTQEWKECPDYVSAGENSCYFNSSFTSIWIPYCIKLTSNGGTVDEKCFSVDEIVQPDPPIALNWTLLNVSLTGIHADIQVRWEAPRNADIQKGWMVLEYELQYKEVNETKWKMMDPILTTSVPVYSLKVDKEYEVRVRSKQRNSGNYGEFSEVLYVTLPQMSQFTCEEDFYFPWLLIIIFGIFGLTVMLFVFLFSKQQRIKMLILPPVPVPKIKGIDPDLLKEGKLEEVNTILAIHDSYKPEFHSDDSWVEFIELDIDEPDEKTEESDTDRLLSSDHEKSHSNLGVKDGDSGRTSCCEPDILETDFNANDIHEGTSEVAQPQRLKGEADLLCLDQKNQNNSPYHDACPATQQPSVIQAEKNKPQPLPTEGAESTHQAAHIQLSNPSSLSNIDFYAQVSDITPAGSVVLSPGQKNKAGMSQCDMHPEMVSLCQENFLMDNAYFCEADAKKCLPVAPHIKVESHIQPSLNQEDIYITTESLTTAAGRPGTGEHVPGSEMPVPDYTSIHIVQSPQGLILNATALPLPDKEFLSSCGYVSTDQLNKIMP
Experiment: STAT5 phosphorylation in vitro assay, human GHR-transfected HEK293 cells
Type: cell-based
Conditions: for fluorescent signal ave (phospho-STAT5): Table 7, human GHR-transfected cells
Procedure: This Example illustrates the effect of GHR antibodies in an in vitro STAT5 phosphorylation assay. In this Example, the ability of GHR antibodies to block GHR downstream signaling was tested in vitro using human GHR overexpressing cells and cyno GHR overexpressing cells. […]
Antibodies SS3 and SS1 (hIgG2Δa) were tested using a STAT5 phosphorylation assay. For the STAT5 assay, full-length human GHR overexpressing HEK293 cells or full-length cyno GHR-overexpressing HEK293 cells were cultured, counted by automated cell counter, and seeded in warm freestyle media in 12-well plates (5×10^5 cells/well in 1 ml media). Cells were allowed to settle for 3 hours at 37° C. then treated with 2.5, 5, 50, or 500 nM of SS1 or SS3 in media.
Millipore™ lysis buffer with 1× protease inhibitor cocktail and sodium orthovanadate was added to each pellet at a volume of 100 ul/pellet Cells were vortexed and incubated for 15 minutes at room temp with occasional vortexing, Millipore™ Assay buffer 2 with 1× protease inhibitor cocktail and 1 mM sodium orthovanadate was then added to the lysates at 200 ul/well.
25 ul/well of sample lysate was added to the wells and the beads and samples were incubated overnight at 4′C with shaking in the dark. […]
The plate was read using a Luminex 200 instrument and florescent signal emitted from the samples was measured.

B1: SS1: humanized GHR antagonist antibody; VL SEQ ID NO: 7, VH SEQ ID NO: 8; hIgG2Δa heavy chain SEQ ID NO: 134, light chain SEQ ID NO: 135 (antibody)
heavy: EVQLVESGGGLVKPGGSLRLSCAASGFTFSDAWMDWVRQAPGKGLEWVAEIRSKANYHATYYAESVKGRFTISRDDSKNTLYLQMNSLKTEDTAVYYCTLIRDYWGQGTLVTVSSASTKGPSVFPLAPCSRSTSESTAALGCLVKDYFPEPVTVSWNSGALTSGVHTFPAVLQSSGLYSLSSVVTVPSSNFGTQTYTCNVDHKPSNTKVDKTVERKCCVECPPCPAPPVAGPSVFLFPPKPKDTLMISRTPEVTCVVVDVSHEDPEVQFNWYVDGVEVHNAKTKPREEQFNSTFRVVSVLTVVHQDWLNGKEYKCKVSNKGLPSSIEKTISKTKGQPREPQVYTLPPSREEMTKNQVSLTCLVKGFYPSDIAVEWESNGQPENNYKTTPPMLDSDGSFFLYSKLTVDKSRWQQGNVFSCSVMHEALHNHYTQKSLSLSPGK
light: EIVLTQSPGTLSLSPGERATLSCTATSSVSSSYLNWYQQKPGQAPRLLIYSTSNLASGIPDRFSGSGSGTDFTLTISRLEPEDFAVYYCHQYHRSTPTFGGGTKVEIKRTVAAPSVFIFPPSDEQLKSGTASVVCLLNNFYPREAKVQWKVDNALQSGNSQESVTEQDSKDSTYSLSSTLTLSKADYEKHKVYACEVTHQGLSSPVTKSFNRGEC
modifications: Humanized and/or affinity matured antibody sequence
fluorescent signal ave (phospho-STAT5) (2.5 nM antibody + 4.5 nM GH): 60
fluorescent signal ave (phospho-STAT5) (5 nM antibody + 4.5 nM GH): 22
fluorescent signal ave (phospho-STAT5) (50 nM antibody + 4.5 nM GH): 0
fluorescent signal ave (phospho-STAT5) (500 nM antibody + 4.5 nM GH): 5
effect on GH-stimulated STAT5 signaling (cells expressing human GHR, 4.5 nM GH): blocked STAT5 signaling in a dose-dependent manner
